Assay results: US20230355534A1, “METHOD TO ENCAPSULATE AN AQUEOUS SOLUTION COMPRISING A COMPOUND OF INTEREST IN A MATRIX” (SECOYA TECHNOLOGIES, priority 2020, published 2023)

What was measured:
[1] = Encapsulation efficiency by spectrophotometry of the second aqueous solution after separation of the particles; type: physicochemical; details: Example 1 particles (Eudragit S100 matrix, oleic acid shell); typical detection limit 2 w %
Description: The encapsulation efficiency has been measured through spectrophotometry measurement by means of a Thermoscientific Genesys 180 device. The encapsulation efficiency is measured by measuring the percentage of compound of interest in the second aqueous solution after separation of the obtained particles. The percentage is a weight percentage, i.e. the mass of compound in relation to the total mass of the second aqueous solution. Given the high mass of second aqueous solution in relation to the mass of the compound of interest, only significant amounts of compound of interest are detected. A typical detection limit is 2 w %. If no compound of interest is detected in the second aqueous solution after separation of the obtained particles, it means that no to very low quantities of compound of interest are present in the second aqueous solution, and that the encapsulation can be considered to have been efficient. Detection of the compound of interest indicates less efficient encapsulation. The larger the amount of compound of interest detected, the less efficient was the encapsulation.
For the measurement of the encapsulation efficiency, the protein pork haemoglobin was used as compound of interest for encapsulation.

[2] = Encapsulation yield by spectrophotometry after dissolution of the particles; type: physicochemical; details: Example 1 particles; percentage of compound initially used that is detected in the particles; upper limit of detection 98%
Description: A second evaluation method measures the encapsulation yield. The encapsulation yield is measured directly on the particles, and represents the percentage of the compound of interest initially used in the encapsulation method that is detected in the particles. The measurement is performed by spectrophotometry by means of a Thermoscientific Genesys 180 device after dissolution of the particles. Based on the detection limits of the device, the upper limit of encapsulation yield is noticed to be 98%, meaning that approximately 2% is not detected. This also means that an encapsulation yield of 98% indicates a very good encapsulation of the compound of interest.
For the measurement of the encapsulation yield, the protein pork haemoglobin was used as compound of interest for encapsulation. The encapsulation yield for pork haemoglobin was up to 98%, indicating a very high encapsulation yield.

Substance: pork haemoglobin
- encapsulation efficiency: compound of interest detected in the second aqueous solution after separation of the obtained particles [1]: No traces
- encapsulation yield [2]: up to 98%
